The values below come from publication PMC8172861, “Structural and phylogenetic analyses of resistance to next-generation aminoglycosides conferred by AAC(2′) enzymes” (Scientific Reports, 2021).

This data set deals with the molecule itself. Put plainly: crystal structure; crystals grown at 4 °C by sitting-drop vapour diffusion, 10 mg/mL AAC(2′)-Ia with 10 mM acetyl-CoA and 10 mM antibiotic (tobramycin, netilmicin or amikacin); two chains (A and B) in the models.

B1: AAC(2′)-Ia from Providencia stuartii (enzyme)
chain: MGIEYRSLHTSQLTLSEKEALYDLLIEGFEGDFSHDDFAHTLGGMHVMAFDQQKLVGHVAIIQRHMALDNTPISVGYVEAMVVEQSYRRQGIGRQLMLQTNKIIASCYQLGLLSASDDGQKLYHSVGWQIWKGKLFELKQGSYIRSIEEEGGVMGWKADGEVDFTASLYCDFRGGDQW
notes: AAC(2′)-Ia, aminoglycoside 2′-N-acetyltransferase from Providencia stuartii; synthesized gene in pET-15b (NdeI/BamHI); Crystallised with acetyl-CoA or CoA and an aminoglycoside; also called aminoglycoside (2′)-N-acetyltransferase; source: E. coli BL21(DE3), purified (Ni-IDA-Sepharose, thrombin cleavage, benzamidine column, DEAE Sepharose); not shown: HIS-tag, N-terminal, cleaved
For B1, the binding result is listed as “binds”.
